We go through one molecule from US7871610B2, “Antibodies to Tie1 ectodomain” (Dyax Corp., priority 2003, dated 2011).

For test [1], the target named is T1, Tie1 (Homo sapiens, UniProt P35590). Nature of the test: Immunoprecipitation from HUVEC lysates. Type of test: binding. Set-up: endogenous in cells; host or cells: HUVEC. As to conditions: 5 μg/ml antibody. Here is the method: The conclusion from this study was that platelets represent a large pool of Tie-1 immunoreactivity which could present a problem for development of Tie1 as a therapeutic target. […] Both, activated and inactivated platelets were tested. Anti-Tie-1 antibodies B2, D11, E3, the goat polyclonal AF619 (R&D) and negative control antibodies anti-FITC and anti-Streptavidin were used. HUVECS were retrieved from culture dishes by trypsinization and platelets were prepared with the platelet GelSep kit (Biocytex, Marseille, France) kit according to the guidelines of the manufacturer. Per immunoprecipitation experiment 3-5e10^6 and 3e10^8 cells platelets were used for each antibody tested. Platelets and cells were washed with PBS and spun down at 1400 rpm for 4 minutes and supernatant was removed. Then cells were lysed in 1 ml lysis buffer containing 50 mM Tris HCL pH 7.5, 150 mM NaCl, 0.5% Deoxycholic acid (DOC) and 0.5% NP-40 for 5 minutes. The lysed cells were spin down for 10 minutes at 14.000 rpm and 5 μg/ml antibody was added to the supernatant and incubated at 4° C. on a rotator. 100 μl/sample protein A beads (Uppsala, Sweden) were washed 3 times with lysis buffer (centrifugation speed: 1.5 seconds, 2000 rpm) then cell lysates incubated with antibody were added for 30 minutes 4° C. […] In Western blotting Tie-1 was detected with the polyclonal goat anti-Tie-1 antibody.

The target of test [2] is T1, Tie1. The test is described as follows: Immunohistochemistry of matched human tumor and normal tissue sections. On the set-up: from tissue; host or cells: fresh frozen normal and tumor tissue (e.g. lung, kidney, skin, breast). As to conditions: fresh frozen tissue. On the procedure:
The Tie-1 antibodies were biotinylated using the EZ-link Sulfo-NHS-SS-Biotin (Pierce, Cat. 21331). For Tie-1/Fc and Tie-1-His, the reaction was performed for 2 hours on ice in 50 mM sodium carbonate buffer, pH 9.6, in the presence of a 5-fold molar excess of biotinylating agent. For the antibodies, the reaction was performed for 2 hours on ice in PBS, in the presence of a 15-fold molar excess of EZ-link Sulfo-NHS-SS-Biotin. The reaction was stopped by the addition of Tris-HCl, pH 7.5 (50 mM final concentration) followed by a 1-hour incubation on ice. Samples were then dialyzed against PBS.
Various normal and tumor tissue sections were stained with biotinylated antibodies. A mouse monoclonal anti-Tie1 antibody (7e8) (Alitalo laboratory, University of Helsinki) was used as a positive control. Sections without primary antibody served as negative control. All samples were fresh frozen tissues and staining was performed with the TSA-kit (Perkin-Elmer Life Sciences). After acetone fixation (10-20 min, −20° C.) the slides were treated with 0.73% H2O2 for 10 min to reduce endogenous peroxidase activity followed by blocking for 30 min with TNB buffer. Sections ([…] thick) were incubated with primary antibodies (10 μg/ml) overnight at 4° C. Sections with the mouse monoclonal anti-tie1 antibody (7e8) were treated with biotinylated anti-mouse antibodies (VectaStain) before the addition of streptavidin-HRP. Signal was amplified by using a TSA kit and the visualized by AEC (235 ml NaAc, 15 ml AEC (stock solution: 1600 mg 3-amino-9-ethyl-carbazole and 480 ml N-dimethylformamide), 250 μl H2O2).

T1 sequence (P35590 22-1138): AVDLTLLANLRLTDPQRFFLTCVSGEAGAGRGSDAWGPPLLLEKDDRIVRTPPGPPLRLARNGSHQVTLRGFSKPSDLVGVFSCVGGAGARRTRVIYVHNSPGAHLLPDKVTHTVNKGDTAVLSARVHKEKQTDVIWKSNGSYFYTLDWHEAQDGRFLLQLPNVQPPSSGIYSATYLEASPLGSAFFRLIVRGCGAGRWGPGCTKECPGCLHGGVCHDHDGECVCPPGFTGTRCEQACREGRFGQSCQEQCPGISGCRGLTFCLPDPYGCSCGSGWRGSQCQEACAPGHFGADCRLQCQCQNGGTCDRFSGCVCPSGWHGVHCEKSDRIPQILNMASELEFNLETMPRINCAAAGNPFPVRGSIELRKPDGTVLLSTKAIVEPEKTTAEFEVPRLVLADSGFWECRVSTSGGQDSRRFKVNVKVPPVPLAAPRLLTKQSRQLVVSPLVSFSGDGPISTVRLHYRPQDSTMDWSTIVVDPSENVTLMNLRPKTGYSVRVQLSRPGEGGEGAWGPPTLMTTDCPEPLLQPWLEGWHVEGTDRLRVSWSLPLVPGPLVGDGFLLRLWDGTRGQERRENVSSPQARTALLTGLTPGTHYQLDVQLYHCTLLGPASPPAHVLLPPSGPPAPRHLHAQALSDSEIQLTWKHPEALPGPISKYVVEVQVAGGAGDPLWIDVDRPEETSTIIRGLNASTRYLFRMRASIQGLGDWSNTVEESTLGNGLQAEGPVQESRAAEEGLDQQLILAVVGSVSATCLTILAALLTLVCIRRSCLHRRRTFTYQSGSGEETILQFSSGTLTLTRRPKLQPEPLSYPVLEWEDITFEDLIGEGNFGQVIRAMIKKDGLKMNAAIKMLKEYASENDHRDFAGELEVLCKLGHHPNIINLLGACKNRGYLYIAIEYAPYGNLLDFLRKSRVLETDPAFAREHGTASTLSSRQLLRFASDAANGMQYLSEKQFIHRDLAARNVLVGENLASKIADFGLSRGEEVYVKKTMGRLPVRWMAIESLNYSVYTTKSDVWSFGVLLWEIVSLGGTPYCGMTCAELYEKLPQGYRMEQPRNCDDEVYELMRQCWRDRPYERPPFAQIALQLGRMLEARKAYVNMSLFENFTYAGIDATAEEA

B1: E3: human anti-Tie1 antibody from Fab phage library; HC SEQ ID NO:114, LC SEQ ID NO:116 (antibody, V domains shown)
VH: EVQLLESGGGLVQPGGSLRLSCAASGFTFSMYGMVWVRQAPGKGLEWVSVISPSGGNTGYADSVKGRFTISRDNSKNTLYLQVNSLRAEDTAVYYCARAPRGYSYGYYYWGQGTLVTVSSASTKGPSVFPLAPSSKSTSGG
VL: DIQMTQSPLSLSASVGDRVTITCRASQGIGHYLAWYQQKPGKVPKLLIYTASTLQSGVPSRFSGSGSGTDFTLTINSLQPEDVATYYCQQFNSYPHTFGQGTRLDIK
modifications: Synthetically generated peptide
B1: the “immunoprecipitation of Tie-1 from HUVEC” value in test [1] is given as “able to immune precipitate Tie-1 in HUVEC”. For the same molecule, in test [2] (10 μg/ml), the “staining of breast carcinoma” value is given as “stained also other structures in addition to vessels”, the “staining of hypernephroma tissue” value is “clear staining”, the staining of kidney entry is given as “stained kidney tubules in addition to the vessels” and the “staining of lung carcinoma” value was “stained structures other than vessels”. Also, in test [2] (10 μg/ml), the “staining of melanoma tissue” value is “also stained other surrounding structures”; the “staining of normal lung (large veins)” value is listed as “stained especially clearly the large veins”; the “staining of normal skin” value is listed as “stained blood vessels very faintly”; the “staining of veins and capillaries of mammary tissue (breast)” value was “brightest staining”. Also, the “staining of vessels in normal tissues (tissue specificity)” value in test [2] (biotinylated IgG 10 μg/ml) is “stained vessels in the lung and kidney but not in the skin”.
